Data: article PMC8860586, “Vimentin binds to G-quadruplex repeats found at telomeres and gene promoters”

Experiments:
Vimentin [1] = target: T1, Vimentin (Homo sapiens, UniProt P08670 2-466); assay: fluorescence anisotropy; 150 mM KCl, pH 8.4, 25 C; tetramer concentration, 1:1 fit; 5 mM Tris-HCl pH 8.4, 150 mM KCl; FA 5 nM DNA at 25 C; EMSA 500 nM DNA + 8 uM vimentin, 1 h room temperature, 1.5% agarose 0.5x TBE + 10 mM KCl, run at 4 C; settings: protein: commercial; chain copies: 4; label: 5'-6-FAM; two adjacent G4s
T1 sequence (P08670 2-466): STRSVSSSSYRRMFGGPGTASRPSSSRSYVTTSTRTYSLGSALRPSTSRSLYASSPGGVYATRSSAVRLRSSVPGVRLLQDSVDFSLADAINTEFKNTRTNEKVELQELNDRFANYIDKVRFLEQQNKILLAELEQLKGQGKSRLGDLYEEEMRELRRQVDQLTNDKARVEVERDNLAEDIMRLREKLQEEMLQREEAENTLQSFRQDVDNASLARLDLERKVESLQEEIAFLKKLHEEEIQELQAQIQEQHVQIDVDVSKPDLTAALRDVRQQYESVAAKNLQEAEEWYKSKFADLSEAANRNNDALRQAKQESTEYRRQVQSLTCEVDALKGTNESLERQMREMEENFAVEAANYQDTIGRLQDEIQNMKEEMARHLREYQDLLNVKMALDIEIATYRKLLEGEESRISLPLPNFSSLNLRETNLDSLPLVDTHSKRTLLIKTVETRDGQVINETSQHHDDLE

Vimentin [2] = target: T1, Vimentin; assay: EMSA; 150 mM KCl, pH 8.4; 5 mM Tris-HCl pH 8.4, 150 mM KCl; FA 5 nM DNA at 25 C; EMSA 500 nM DNA + 8 uM vimentin, 1 h room temperature, 1.5% agarose 0.5x TBE + 10 mM KCl, run at 4 C; settings: protein: commercial, chain copies: 4
Vimentin [3] = target: T1, Vimentin; assay: EMSA; no KCl, pH 8.4; 5 mM Tris-HCl pH 8.4, 150 mM KCl; FA 5 nM DNA at 25 C; EMSA 500 nM DNA + 8 uM vimentin, 1 h room temperature, 1.5% agarose 0.5x TBE + 10 mM KCl, run at 4 C; settings: protein: commercial; chain copies: 4; unfolded single strand
Vimentin [4] = target: T1, Vimentin; assay: EMSA; 150 mM KCl, pH 8.4; Job plot max 0.1 DNA fraction, two tetramers per DNA; 5 mM Tris-HCl pH 8.4, 150 mM KCl; FA 5 nM DNA at 25 C; EMSA 500 nM DNA + 8 uM vimentin, 1 h room temperature, 1.5% agarose 0.5x TBE + 10 mM KCl, run at 4 C; settings: protein: commercial; chain copies: 4; four adjacent G4s
Vimentin [5] = target: T1, Vimentin; assay: EMSA; 150 mM KCl, pH 8.4; two complexes; 5 mM Tris-HCl pH 8.4, 150 mM KCl; FA 5 nM DNA at 25 C; EMSA 500 nM DNA + 8 uM vimentin, 1 h room temperature, 1.5% agarose 0.5x TBE + 10 mM KCl, run at 4 C; settings: protein: commercial; chain copies: 4; three adjacent G4s

B1: FAM-2TEL (structured_DNA)
DNA: TTAGGGTTAGGGTTAGGGTTAGGGTTAGGGTTAGGGTTAGGGTTAGGG
Vimentin [1]
  Kd: 25.7 ± 2.4 nM

B2: TEL (structured_DNA)
DNA: TTAGGGTTAGGGTTAGGGTTAGGG
Vimentin [2]; single G4
  binding result: no binding

B3: KIT2 (structured_DNA)
DNA: CGGGCGGGCGCGAGGGAGGGG
Vimentin [2]; single G4
  binding result: no binding

B4: KIT* (structured_DNA)
DNA: GGCGAGGAGGGGCGTGGCCGGC
Vimentin [2]; single G4
  binding result: no binding

B5: G-rich noG4 (ssDNA)
DNA: TGGCCCTGGTGGGCGGAGGCAAAGGGGGAGCCAGGGGCGGAGAAAGGGT
Vimentin [3]
  binding result: binds

B6: hTERT (structured_DNA)
DNA: GGGGAGGGGCTGGGAGGGCCCGGAGGGGGCTGGGCCGGGGACCCGGGAGGGGTCGGGACGGGGCGGGG
Vimentin [2]; G4 repeat
  binding result: binds

B7: 4TEL (structured_DNA)
DNA: TTAGGGTTAGGGTTAGGGTTAGGGTTAGGGTTAGGGTTAGGGTTAGGGTTAGGGTTAGGGTTAGGGTTAGGGTTAGGGTTAGGGTTAGGGTTAGGG
Vimentin [4]
  binding result: binds

B8: ILPR (structured_DNA)
DNA: ACAGGGGTGTGGGGACAGGGGTGTGGGGACAGGGGTGTGGGGACAGGGGTGTGGGG
Vimentin [2]; G4 repeat
  binding result: binds

B9: KIT2KIT* (structured_DNA)
DNA: CGGGCGGGCGCGAGGGAGGGGAGGCGAGGAGGGGCGTGGCCGGC
Vimentin [2]; two adjacent G4s
  binding result: binds

B10: 3TEL (structured_DNA)
DNA: TTAGGGTTAGGGTTAGGGTTAGGGTTAGGGTTAGGGTTAGGGTTAGGGTTAGGGTTAGGGTTAGGGTTAGGG
Vimentin [5]
  binding result: binds
